T1: p125, catalytic subunit of human Pol δ (human, UniProt P28340 1-1107)
T1 construct: DNA polymerase delta catalytic subunit p125, human; Stood in the assay as a subunit of the Pol δ heterotetramer; source: Sf9 insect cells, coexpressed with p50, p66 and p12 (MultiBac baculovirus), purified as the heterotetramer
T1 sequence: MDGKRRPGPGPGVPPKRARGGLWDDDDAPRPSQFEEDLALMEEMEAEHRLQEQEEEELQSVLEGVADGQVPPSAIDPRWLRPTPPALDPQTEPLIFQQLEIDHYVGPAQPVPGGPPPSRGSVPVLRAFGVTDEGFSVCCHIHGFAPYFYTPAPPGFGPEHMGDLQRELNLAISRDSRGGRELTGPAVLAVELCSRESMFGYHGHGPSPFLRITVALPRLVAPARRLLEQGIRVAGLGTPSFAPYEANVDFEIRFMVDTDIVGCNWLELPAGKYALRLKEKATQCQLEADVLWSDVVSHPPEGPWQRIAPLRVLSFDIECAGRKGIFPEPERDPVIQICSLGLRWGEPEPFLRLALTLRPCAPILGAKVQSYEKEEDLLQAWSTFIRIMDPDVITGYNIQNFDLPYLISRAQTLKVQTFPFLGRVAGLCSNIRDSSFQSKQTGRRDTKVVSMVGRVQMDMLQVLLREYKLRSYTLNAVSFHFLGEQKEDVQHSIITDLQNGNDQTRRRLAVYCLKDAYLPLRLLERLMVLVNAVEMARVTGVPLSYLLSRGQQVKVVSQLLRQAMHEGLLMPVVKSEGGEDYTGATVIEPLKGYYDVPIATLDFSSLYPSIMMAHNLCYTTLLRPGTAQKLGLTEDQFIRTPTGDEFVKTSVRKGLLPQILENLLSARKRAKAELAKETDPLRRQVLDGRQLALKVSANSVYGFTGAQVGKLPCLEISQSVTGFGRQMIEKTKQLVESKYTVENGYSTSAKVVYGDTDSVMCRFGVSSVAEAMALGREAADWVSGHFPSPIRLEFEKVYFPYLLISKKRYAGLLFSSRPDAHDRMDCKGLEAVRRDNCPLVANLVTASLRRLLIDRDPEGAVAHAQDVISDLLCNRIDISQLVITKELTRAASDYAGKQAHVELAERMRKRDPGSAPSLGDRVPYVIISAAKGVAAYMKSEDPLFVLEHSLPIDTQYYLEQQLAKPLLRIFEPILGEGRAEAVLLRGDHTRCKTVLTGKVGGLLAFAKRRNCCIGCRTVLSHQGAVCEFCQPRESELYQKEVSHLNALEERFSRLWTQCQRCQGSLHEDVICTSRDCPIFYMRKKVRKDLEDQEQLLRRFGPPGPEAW

B1: p66, regulatory subunit of human Pol δ (natural protein)
chain: ADQLYLENIDEFVTDQNKIVTYKWLSYTLGVHVNQAKQMLYDYVERKRKENSGAQLHVTYLVSGSLIQNGHSCHKVAVVREDKLEAVKSKLAVTASIHVYSIQKAMLKDSGPLFNTDYDILKSNLQNCSKFSAIQCAAAVPRAPAESSSSSKKFEQSHLHMSSETQANNELTTNGHGPPASKQVSQQPKGIMGMFASKAAAKTQETNKETKTEAKEVTNASAAGNKAPGKGNMMSNFFGKAAMNKFKVNLDSEQAVKEEKIVEQPTVSVTEPKLATPAGLKKSSKKAEPVKVLQKEKKRGKRVALSDDETKETENMRKKRRRIKLPESDSSEDEVFPDSPGAYEAESPSPPPPPSPPLEPVPKTEPEPPSVKSSSGENKRKRKRVLKSKTYLDGEGCIVTEKVYESESCTDSEEELNMKTSSVHRPPAMTVKKEPREERKGPKKGTAALGKANRQVSITGFFQRK
notes: DNA polymerase delta subunit p66, human; last visible residue in the map is Ala144; Stood in the assay as a subunit of the Pol δ heterotetramer; also called p66N (its visible N-terminal part); source: Sf9 insect cells, coexpressed with p125, p50 and p12 (MultiBac baculovirus), purified as the heterotetramer
B2: DLDV-PCNA (PCNA D120A, L121A, D122A, V123E) (natural protein, human, UniProt P12004 1-261, looked up)
chain: MFEARLVQGSILKKVLEALKDLINEACWDISSSGVNLQSMDSSHVSLVQLTLRSEGFDTYRCDRNLAMGVNLTSMSKILKCAGNEDIITLRAEDNADTLALVFEAPNQEKVSDYEMKLMAAAEEQLGIPEQEYSCVVKMPSGEFARICRDLSHIGDAVVISCAKDGVKFSASGELGNGNIKLSQTSNVDKEEEAVTIEMNEPVQLTFALRYLNFFTKATPLSSTVTLSMSADVPLVVEYKIADMGHLKYYLAPKIEDEEGS
notes: proliferating cell nuclear antigen, human, full length, with D120A, L121A, D122A and V123E; source: E. coli BL21 (DE3), purified (HisTrap, HiTrap Q, Superdex 200)
B3: p12, regulatory subunit of human Pol δ (natural protein)
chain: GRKRLITDSYPVVKRREGPAGHSKGELAPELGEEPQPRDEEEAELELLRQFDLAWQYGPCTGITRLQRWCRAKQMGLEPPPEVWQVLKTHPGDPRFQCSLWHLYPL
notes: Stood in the assay as a subunit of the Pol δ heterotetramer; source: Sf9 insect cells, coexpressed with p125, p50 and p66 (MultiBac baculovirus), purified as the heterotetramer

What was measured:
[1] = molecular target: T2, p50, regulatory subunit of human Pol δ (human, UniProt P49005 1-469); assay: cryo-EM structure; Pol δ–DNA–PCNA–dTTP complex with 25/38 primer/template DNA (3' dideoxy terminator); 25 mM HEPES-KOH pH 7.5, 100 mM potassium acetate, 10 mM calcium chloride, 0.02% NP-40, 0.4 mM biotin, 1 mM DTT; 4.1 Å map from the sample frozen after mixing (conformers at 4.3, 4.9, 8.1 Å), 3.0 Å map from the gel-filtered sample in which FEN1 is invisible; conditions: both partners purified
T2 construct: DNA polymerase delta subunit p50 (B-subunit), human; Stood in the assay as a subunit of the Pol δ heterotetramer; also called B-subunit; source: Sf9 insect cells, coexpressed with p125, p66 and p12 (MultiBac baculovirus), purified as the heterotetramer

[2] = molecular target: the molecule itself; assay: SEC; HiLoad 16/600 Superdex 200 pg in PCNA storage buffer; 2 mg of each PCNA form in 250 μL, 1 mL/min; markers carbonic anhydrase (27 kDa) and conalbumin (75 kDa); monomers to trimer
[3] = molecular target: T1, p125, catalytic subunit of human Pol δ; assay: cryo-EM structure; Pol δ–DNA–PCNA–dTTP complex with 25/38 primer/template DNA (3' dideoxy terminator); 25 mM HEPES-KOH pH 7.5, 100 mM potassium acetate, 10 mM calcium chloride, 0.02% NP-40, 0.4 mM biotin, 1 mM DTT; 4.1 Å map from the sample frozen after mixing (conformers at 4.3, 4.9, 8.1 Å), 3.0 Å map from the gel-filtered sample in which FEN1 is invisible; conditions: both partners purified

T2 sequence (P49005 whole entry, stated change not applied): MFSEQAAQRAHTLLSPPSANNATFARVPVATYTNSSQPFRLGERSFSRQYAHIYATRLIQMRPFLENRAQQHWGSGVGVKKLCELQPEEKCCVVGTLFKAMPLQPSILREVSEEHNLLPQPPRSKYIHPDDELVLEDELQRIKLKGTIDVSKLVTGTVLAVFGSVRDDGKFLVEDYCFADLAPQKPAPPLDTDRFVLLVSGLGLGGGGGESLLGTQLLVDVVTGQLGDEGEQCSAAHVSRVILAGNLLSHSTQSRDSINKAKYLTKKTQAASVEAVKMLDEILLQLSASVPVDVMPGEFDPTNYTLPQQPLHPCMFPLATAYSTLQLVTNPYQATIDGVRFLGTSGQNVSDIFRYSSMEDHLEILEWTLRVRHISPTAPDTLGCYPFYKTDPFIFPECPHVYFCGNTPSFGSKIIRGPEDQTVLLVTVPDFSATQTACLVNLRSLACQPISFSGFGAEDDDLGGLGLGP

Binder | binding result [1] | stoichiometry N [2] | binding result [3]
B1 | binds |  | 
B2 |  | 3 | 
B3 | binds |  | binds

Reference: paper PMC7048817, “Structure of the processive human Pol δ holoenzyme” (Nature Communications, 2020)
